Experimental findings from patent US20140308678A1 (ONCOTHERAPY SCIENCE, published 2014) are described below.

Assay [1] concerns the target T1, FLAG-HSP90AB1 (WT) (human, UniProt P08238 1-724).
T1 construct: Expressed in cells together with HA-SMYD2 (so it may be methylated by SMYD2 in the assay); not shown: FLAG tag
Put plainly: anti-FLAG immunoprecipitation from 293T cells, Western blot with anti-Cdc37 (FIG. 5D); the wild type is the reference. As for the experimental part: (§1) Then, cell lysates were immunoblotted with anti-FLAG, anti-SMYD2 and anti-ACTB (an internal control) antibodies. Part B depicts the results of immunoprecipitation analysis using 293T cells co-transfected with FLAG-Mock or FLAG-HSP90AB1 (WT) and HA-HSP90AB1 (WT or K531A/K574A) expression vectors in the presence of an HA-SMYD2 expression vector. Immunoprecipitation was performed using anti-FLAG^{(registered trademark)} M2 agarose beads, and samples were immunoblotted with anti-FLAG and anti-HA antibodies. Part C depicts the results of immunoprecipitation analysis using 293T cells co-transfected with FLAG-Mock or FLAG-HSP90AB1 (WT) and HA-HSP90AB1 (WT, K531A or K574A) expression vectors in the presence of an HA-SMYD2 expression vector. Immunoprecipitation was performed using anti-FLAG^{(registered trademark)} M2 agarose beads, and samples were immunoblotted with anti-FLAG and anti-HA antibodies. Part D and E depict that the methylation of K574 on HSP90AB1 is important for binding to some co-chaperones. 293T cells were transfected with FLAG-HSP90AB1 (WT) or FLAG-HSP90AB1 (K531A/K574A) (D), FLAG-Mock, FLAG-HSP90AB1 (WT), FLAG-HSP90AB1 (K531A) or FLAG-HSP90AB1 (K574A) (E) expression vectors, in the presence of an HA-SMYD2 expression vector. […]
For orientation: In western blotting, separated proteins are transferred to a membrane and probed.

The target in assay [2] is T1, FLAG-HSP90AB1 (WT). Kind of assay: anti-FLAG immunoprecipitation from 293T cells, Western blot with anti-p23 (FIG. 5D); the wild type is the reference. As for the experimental part:
as §1

The target of assay [3] is T2, FLAG-HSP90AB1 (K531A/K574A) (human, UniProt P08238 1-724).
T2 construct: Expressed in 293T cells in the presence of HA-SMYD2; also called K531A/K574A substitution of HSP90AB1; not shown: FLAG tag
Kind of assay: anti-FLAG immunoprecipitation from 293T cells, Western blot with anti-p23 (FIG. 5D). As for the experimental part:
as §1

The target of a further assay is T3, FLAG-HSP90AB1 (K574A) (human, UniProt P08238 1-724).
T3 construct: Expressed in 293T cells in the presence of HA-SMYD2; not shown: FLAG tag
Put plainly: anti-FLAG immunoprecipitation from 293T cells, Western blot with anti-p23 (FIG. 5E). As for the experimental part: as §1

T1 sequence (P08238 whole entry): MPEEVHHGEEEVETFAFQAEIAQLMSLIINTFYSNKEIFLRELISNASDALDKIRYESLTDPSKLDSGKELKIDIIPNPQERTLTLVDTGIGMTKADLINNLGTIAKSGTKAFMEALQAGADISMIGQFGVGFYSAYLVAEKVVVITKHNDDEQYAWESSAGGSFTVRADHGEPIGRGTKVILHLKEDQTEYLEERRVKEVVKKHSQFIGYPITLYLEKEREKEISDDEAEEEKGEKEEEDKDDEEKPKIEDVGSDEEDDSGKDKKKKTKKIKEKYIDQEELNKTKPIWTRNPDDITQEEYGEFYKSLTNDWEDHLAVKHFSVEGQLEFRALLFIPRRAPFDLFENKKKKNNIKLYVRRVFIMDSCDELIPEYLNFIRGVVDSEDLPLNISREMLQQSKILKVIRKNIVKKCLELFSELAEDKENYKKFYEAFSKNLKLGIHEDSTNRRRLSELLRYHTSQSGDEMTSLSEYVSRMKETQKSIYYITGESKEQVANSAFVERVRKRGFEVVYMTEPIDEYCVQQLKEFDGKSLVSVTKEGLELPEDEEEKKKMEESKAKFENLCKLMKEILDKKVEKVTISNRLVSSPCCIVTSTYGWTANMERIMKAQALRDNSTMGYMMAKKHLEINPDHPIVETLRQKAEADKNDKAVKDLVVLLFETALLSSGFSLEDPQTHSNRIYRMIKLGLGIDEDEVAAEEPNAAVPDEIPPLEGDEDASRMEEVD
T3 sequence (P08238 whole entry K574A): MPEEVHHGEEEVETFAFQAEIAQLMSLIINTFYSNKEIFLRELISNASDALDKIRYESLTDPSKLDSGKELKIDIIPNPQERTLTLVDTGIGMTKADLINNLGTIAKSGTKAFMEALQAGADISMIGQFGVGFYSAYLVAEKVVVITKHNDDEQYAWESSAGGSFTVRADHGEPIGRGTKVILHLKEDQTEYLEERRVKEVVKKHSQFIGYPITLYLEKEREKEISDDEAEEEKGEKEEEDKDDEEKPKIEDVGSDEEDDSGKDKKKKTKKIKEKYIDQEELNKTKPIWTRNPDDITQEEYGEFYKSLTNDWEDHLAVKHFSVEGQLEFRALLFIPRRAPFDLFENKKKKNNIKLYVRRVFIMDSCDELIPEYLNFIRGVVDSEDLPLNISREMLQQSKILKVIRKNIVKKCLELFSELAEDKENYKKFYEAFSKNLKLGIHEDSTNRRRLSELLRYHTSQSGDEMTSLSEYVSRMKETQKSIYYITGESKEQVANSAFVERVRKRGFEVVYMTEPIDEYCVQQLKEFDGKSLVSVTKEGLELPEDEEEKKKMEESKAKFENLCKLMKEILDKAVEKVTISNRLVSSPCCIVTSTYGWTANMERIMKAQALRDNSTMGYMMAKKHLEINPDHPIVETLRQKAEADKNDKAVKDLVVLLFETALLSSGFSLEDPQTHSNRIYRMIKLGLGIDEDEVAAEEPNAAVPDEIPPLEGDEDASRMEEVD
T2 sequence (P08238 whole entry K531A/K574A): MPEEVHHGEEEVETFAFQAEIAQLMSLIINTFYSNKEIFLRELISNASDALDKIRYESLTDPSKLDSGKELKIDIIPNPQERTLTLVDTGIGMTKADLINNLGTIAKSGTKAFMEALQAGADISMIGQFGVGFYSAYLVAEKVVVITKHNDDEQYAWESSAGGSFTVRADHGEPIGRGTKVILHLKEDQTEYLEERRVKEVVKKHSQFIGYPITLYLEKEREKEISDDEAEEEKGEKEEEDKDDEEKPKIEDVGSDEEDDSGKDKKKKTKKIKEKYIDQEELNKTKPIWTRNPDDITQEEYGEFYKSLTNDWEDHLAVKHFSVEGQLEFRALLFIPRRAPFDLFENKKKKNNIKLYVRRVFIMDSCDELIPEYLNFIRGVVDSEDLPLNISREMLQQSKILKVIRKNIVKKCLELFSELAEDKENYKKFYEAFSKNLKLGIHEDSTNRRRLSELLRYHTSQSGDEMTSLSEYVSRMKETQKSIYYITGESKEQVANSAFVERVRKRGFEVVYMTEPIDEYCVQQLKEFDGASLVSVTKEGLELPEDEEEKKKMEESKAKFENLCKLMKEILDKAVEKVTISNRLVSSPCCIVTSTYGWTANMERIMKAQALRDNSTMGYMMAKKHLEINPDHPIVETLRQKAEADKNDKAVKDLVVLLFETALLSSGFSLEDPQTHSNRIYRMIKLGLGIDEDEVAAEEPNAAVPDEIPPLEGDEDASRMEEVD

B1: Cdc37 (other, UniProt Q16543 1-378, looked up)
chain: MVDYSVWDHIEVSDDEDETHPNIDTASLFRWRHQARVERMEQFQKEKEELDRGCRECKRKVAECQRKLKELEVAEGGKAELERLQAEAQQLRKEERSWEQKLEEMRKKEKSMPWNVDTLSKDGFSKSMVNTKPEKTEEDSEEVREQKHKTFVEKYEKQIKHFGMLRRWDDSQKYLSDNVHLVCEETANYLVIWCIDLEVEEKCALMEQVAHQTIVMQFILELAKSLKVDPRACFRQFFTKIKTADRQYMEGFNDELEAFKERVRGRAKLRIEKAMKEYEEEERKKRLGPGGLDPVEVYESLPEELQKCFDVKDVQMLQDAISKMDPTDAKYHMQRCIDSGLWVPNSKASEAKEGEEAGPGDPLLEAVPKTGDEKDVSV
notes: Endogenous in 293T cell lysate
Consider B1, for which the binding result in the assay with FLAG-HSP90AB1 (WT) [1] is recorded as “binds”.

B2: p23 (other, UniProt Q15185 1-160, looked up)
chain: MQPASAKWYDRRDYVFIEFCVEDSKDVNVNFEKSKLTFSCLGGSDNFKHLNEIDLFHCIDPNDSKHKRTDRSILCCLRKGESGQSWPRLTKERAKLNWLSVDFNNWKDWEDDSDEDMSNFDRFSEMMNNMGGDEDVDLPEVDGADDDSQDSDDEKMPDLE
notes: as for B1
Consider B2, for which the binding result (with FLAG-HSP90AB1 (WT) [2]; in assay [3]; in the assay with FLAG-HSP90AB1 (K574A)) was “binds” each time.
